In article PMC6389977:

Target: purified recombinant human GAPDH protein (human) (UniProt P04406)
Assay: SPR

Sequence of purified recombinant human GAPDH protein (human) (P04406 whole entry): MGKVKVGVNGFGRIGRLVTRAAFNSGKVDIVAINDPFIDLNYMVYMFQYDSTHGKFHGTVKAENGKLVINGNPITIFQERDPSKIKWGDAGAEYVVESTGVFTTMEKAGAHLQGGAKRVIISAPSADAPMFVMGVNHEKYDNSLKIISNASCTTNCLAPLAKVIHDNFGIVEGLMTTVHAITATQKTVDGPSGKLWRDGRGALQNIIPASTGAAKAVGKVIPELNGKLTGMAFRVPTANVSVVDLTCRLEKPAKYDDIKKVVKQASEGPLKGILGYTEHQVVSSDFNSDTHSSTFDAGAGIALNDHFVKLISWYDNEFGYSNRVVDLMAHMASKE
Sequence of DENV2 NS3 protease domain (domain or fragment) (P14340 1476-1660 limits assumed): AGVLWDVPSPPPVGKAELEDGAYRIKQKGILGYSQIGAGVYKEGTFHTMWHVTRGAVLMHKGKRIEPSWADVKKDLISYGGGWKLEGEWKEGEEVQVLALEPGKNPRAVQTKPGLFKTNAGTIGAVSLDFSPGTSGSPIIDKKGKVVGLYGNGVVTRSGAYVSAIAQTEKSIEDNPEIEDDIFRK
Sequence of DENV2 NS3 helicase domain (domain or fragment) (P14340 1644-2093 limits assumed): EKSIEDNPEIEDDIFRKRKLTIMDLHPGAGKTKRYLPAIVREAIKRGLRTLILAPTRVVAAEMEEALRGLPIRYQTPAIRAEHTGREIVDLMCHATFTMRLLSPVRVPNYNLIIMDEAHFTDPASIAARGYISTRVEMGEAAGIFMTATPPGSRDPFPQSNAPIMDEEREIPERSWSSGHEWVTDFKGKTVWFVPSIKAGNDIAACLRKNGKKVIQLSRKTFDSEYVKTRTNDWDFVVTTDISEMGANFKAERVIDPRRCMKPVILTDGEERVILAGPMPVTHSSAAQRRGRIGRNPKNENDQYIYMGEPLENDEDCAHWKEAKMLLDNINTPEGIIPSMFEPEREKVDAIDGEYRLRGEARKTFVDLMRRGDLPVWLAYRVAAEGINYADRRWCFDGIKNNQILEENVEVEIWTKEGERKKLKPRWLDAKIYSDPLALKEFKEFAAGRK

Substance | Kd [nM]
DENV2 NS3 helicase domain (domain or fragment) | 2500
DENV2 NS3 protease domain (domain or fragment) | 2400
